These results are taken from publication PMC11707020.

The target of this assay is USP25 (UniProt Q9UHP3). Nature of the assay: co-immunoprecipitation, western blot. To be noted: reference: HA-STAT3 wild type; sites Y705. For orientation: In western blotting, separated proteins are transferred to a membrane and probed.

On to “STAT3 (from UniProt P40763) HA-STAT3 Y705F”, for which the “binding against the reference” value is listed as “weaker”.
